# Reference: FireProtDB (doi:10.1021/bi0525223)
# B1: Protein P-30, P22069 (parent)
# chain: QDWLTFQKKHITNTRDVDCDNIMSTNLFHCKDKNTFIYSRPEPVKAICKGIIASKNVLTTSEFYLSDCNVTSRPCKYKLKKSTNKFCVTCENQAPVHFVGVGSC
# Variants of: B1
# Conditions: Lithobates pipiens, pH 5.5, sodium acetate 100 mM, reversible: Yes, structure 1ONC, whole UniProt chain shown; for ddG of mutation (higher = less stable) / denaturant midpoint (higher = more stable): 20 °C, GdnHCl, Fluorescence; for Tm / change of melting temperature, mutant - wild type (higher = more stable): Thermal, DSC
Variant,ddG of mutation (higher = less stable),denaturant midpoint (higher = more stable),Tm,"change of melting temperature, mutant - wild type (higher = more stable)"
C87A C104A,32 kJ/mol,2.1 M,69.4 °C,-19.1 °C
F28T,22.2 kJ/mol,2.8 M,77.4 °C,-11.1 °C
F28A,20.9 kJ/mol,2.9 M,78.1 °C,-10.4 °C
F36Y,19.5 kJ/mol,3 M,79.2 °C,-9.3 °C
